The assay relates to CFPAC-1 cells. Kind of assay: Induction of EMT by growth factors and cytokines, E-cadherin and vimentin immunoblotting. The assay is classed as cell-based, human. Particulars: CFPAC-1 cells treated 7 days with ligand. The procedure: The CFPAC1 cell line was cultured in DMEM media (Gibco #11960) supplemented with 10% FBS (Sigma), 2 mM L Glutamine (Gibco), at 37° C., 5% CO2. For 7 day treatments, cells were seeded on tissue culture plastic in complete growth media and allowed to attach overnight at cell densities that would provide approximately 60-80% confluence at end of experiment. Ligand and/or inhibitor was added the following day (Day 0) in complete growth media and incubated at 37° C., 5% CO2. Ligand source and concentrations used are as follows: [1] From R&D systems, SDF-1α (stromal derived factor-1 alpha) at 100 ng/ml, TRANCE (TNF-related activation induced cytokine) at 50 ng/ml, FGF1 (fibroblast growth factor acidic) at 10 ng/ml, FGF2 (fibroblast growth factor basic) at 10 ng/ml, BMP4 (bone morphogenetic protein 4) at 100 ng/ml, BMP7 (bone morphogenetic protein 7) at 100 ng/ml, IGF2 (insulin-like growth factor 2) at 100 ng/ml, OSM (Oncostatin M) at 100 ng/ml, NRG1 (Neuregulin-1) at 50 ng/ml, PDGFaa (Platelet derived growth factor a) at 50 ng/ml, PDGFbb (platelet derive growth factor b) at 30 ng/ml, Ang2 (Angiopoeitin 2) at 400 ng/ml, amphiregulin at 100 ng/ml, HMGB 1 (Human high-mobility group box 1 protein) at 50 ng/ml; [2] From Genscript, LIF (Leukemia inhibitory factor) at 20 ng/ml, GM-CSF (Granulocyte macrophage colony stimulating factor) at 25 ng/ml, M-CSF (Macrophage colony stimulating factor) at 50 ng/ml; [3] From Anaspec, PAR1 (Protease activated receptor 1 agonist) at 100 μM; PAR2 (Protease activated receptor 2 agonist; peptide SLIGKV-NH2, Cat. No. 60217-1) at 100 μM; PAR4 (Protease activated receptor […] agonist; peptide AYPGKF-NH2, Cat. No. 60218-1) at 100 μM; [4] From Peprotech, HGF (Hepatocyte Growth Factor) at 100 ng/ml; IL-31 (Interleukin-31) at 50 ng/ml, IL-33 (Interleukin-33) at 50 ng/ml, IL1-a (Interleukin-1 alpha) at 10 ng/ml, CTGF (Connective tissue growth factor) at 20 ng/ml, WISP1 (Wnt-1 inducible signaling pathway protein) at 20 ng/ml, PTHrP ([…] hormone-related protein) at 50 ng/ml, MCP1 (monocyte chemotactic protein-1) at 50 ng/ml; and [5] from Sigma, Fulvestrant at 1 μM. Fresh medium containing ligand and/or inhibitor was added 3-4 days after initial dose, and at Day 7 cells were harvested for western blot analysis.
Cells were harvested by washing once with PBS, and lysing on ice for 10 minutes with scraping (using a Cell Lifter, Corning Inc. #3008) in ice cold RIPA buffer (Sigma R0278) containing Protease inhibitor (Sigma P8340), Phosphatase inhibitors (Sigma P2850, P5726) and 200 μM Sodium Vanadate. Supernatents were micro-centrifuged at max speed, 4° C. for 10 minutes. Protein content was quantitated using the BCA method (Pierce #23225) and samples were normalized to total protein in Laemli buffer and heated at 100° C. for 10 minutes. SDS PAGE was run using a Bis-Tris gel system (Invitrogen NuPAGE) with MOPS buffer (Invitrogen NP0001), transferred onto nitrocellulose using the iBLOT system (Invitrogen) and blocked in PBS-T (0.1% Tween 20), 5% non-fat milk or BSA in guidance with primary Ab supplier requirements. All primary antibodies were incubated overnight at 4° C. in PBS-T (0.1% Tween 20) in either 5% non-fat milk or BSA, diluted to the following working dilutions: anti E Cadherin (Santa Cruz #sc-21791) 1:500 dilution; anti Vimentin (BD Biosciences #550513) 1:2000 dilution;); anti GAPDH HRP conjugate (Santa Cruz sc-25778) 1:1000 dilution; anti β-Actin (Sigma, A5441) 1:10,000 dilution. […]

B1: CTGF: Connective tissue growth factor, Peprotech, 20 ng/ml (protein, UniProt P29279 27-349, looked up)
CCN family member 2: QNCSGPCRCPDEPAPRCPAGVSLVLDGCGCCRVCAKQLGELCTERDPCDPHKGLFCHFGSPANRKIGVCTAKDGAPCIFGGTVYRSGESFQSSCKYQCTCLDGAVGCMPLCSMDVRLPSPDCPFPRRVKLPGKCCEEWVCDEPKDQTVVGPALAAYRLEDTFGPDPTMIRANCLVQTTEWSACSKTCGMGISTRVTNDNASCRLEKQSRLCMVRPCEADLEENIKKGKKCIRTPKISKPIKFELSGCTSMKTYRAKFCGVCTDGRCCTPHRTTTLPVEFKCPDGEVMKKNMMFIKTCACHYNCPGDNDIFESLYYRKMYGDMA
Regarding B1, the “Induction of EMT (E-cadherin down, vimentin up)” value (“Induction of EMT” for short) was “Partial EMT”.

B2: BMP7: bone morphogenetic protein 7, R&D systems, 100 ng/ml (protein, UniProt P18075 293-431, looked up)
Bone morphogenetic protein 7: STGSKQRSQNRSKTPKNQEALRMANVAENSSSDQRQACKKHELYVSFRDLGWQDWIIAPEGYAAYYCEGECAFPLNSYMNATNHAIVQTLVHFINPETVPKPCCAPTQLNAISVLYFDDSSNVILKKYRNMVVRACGCH
Turning to B2, the “Induction of EMT” value was “Partial EMT”.

B3: IL-33: Interleukin-33, Peprotech, 50 ng/ml (protein, UniProt O95760 1-270, looked up)
Interleukin-33: MKPKMKYSTNKISTAKWKNTASKALCFKLGKSQQKAKEVCPMYFMKLRSGLMIKKEACYFRRETTKRPSLKTGRKHKRHLVLAACQQQSTVECFAFGISGVQKYTRALHDSSITGISPITEYLASLSTYNDQSITFALEDESYEIYVEDLKKDEKKDKVLLSYYESQHPSNESGDGVDGKMLMVTLSPTKDFWLHANNKEHSVELHKCEKPLPDQAFFVLHNMHSNCVSFECKTDPGVFIGVKDNHLALIKVDSSENLCTENILFKLSET
Consider B3, for which the “Induction of EMT” value is on record as “Partial EMT”.

B4: BMP4: bone morphogenetic protein 4, R&D systems, 100 ng/ml (protein, UniProt P12644 293-408, looked up)
Bone morphogenetic protein 4: SPKHHSQRARKKNKNCRRHSLYVDFSDVGWNDWIVAPPGYQAFYCHGDCPFPLADHLNSTNHAIVQTLVNSVNSSIPKACCVPTELSAISMLYLDEYDKVVLKNYQEMVVEGCGCR
As to B4, the “Induction of EMT” value is “Partial EMT”.

The values above are taken from patent publication US8642834B2, “Methods for the identification of agents that inhibit mesenchymal-like tumor cells or their formation” (OSI Pharmaceuticals, LLC, priority 2009, dated 2014).
